Experimental data published in the Human Domainome abundance scans (Beltran et al. 2025).
± gives the uncertainty stated by the source.

B1: POU domain, class 4, transcription factor 2, residues 256 to 327; numbered along this chain, Q12837 (parent)
chain: RDLEAFAERFKQRRIKLGVTQADVGSALANLKIPGVGSLSQSTICRFESLTLSHNNMIALKPILQAWLEEAE

Variants of: B1
Test: abundance fitness (aPCA) (normalised: wild type 0, dead -1); higher = more abundant; growth selection in yeast, the domain comes from the species named
Details: Homo sapiens

In order of rising abundance fitness:
1. RDLEAFAERFKQRRIKLGVTQADVGSALANLKIPGVGSLSQSTICRFESLTLSHNNMIALKPILQAWREEAE [L68R]  -0.847 ± 0.43
2. RDLEAFAERFKQRRIKLGVTQADVGSALANLKIPGVGSLSQSTICRFESLTLSHNNMIALKPILQAWGEEAE [L68G]  -0.777 ± 0.32
3. RDLEAFAERFKQRRIKLGVTQADVGSALANLKIPGVGSLSQSTICRFESLTLSHNNMIALKPILQAWTEEAE [L68T]  -0.733 ± 0.3
4. RDLEAFAERFKQRRIKLGVTQADVGSALANLKIPGVGSLSQSTICRFESLTLSHNNMIALKPILQAWWEEAE [L68W]  -0.663 ± 0.49
5. RDLEAFAERFKQRRIKLGVTQADVGSALANLKIPGVGSLSQSTICRFESLTLSHNNMIALKPILQAWDEEAE [L68D]  -0.617 ± 0.21
6. RDLEAFAERFKQRRIKLGVTQADVGSALANLKIPGVGSLSQSTICRFESLTLSHNNMIALKPILQAWLEEDE [A71D]  -0.614 ± 0.23
7. RDLEAFAERFKQRRIKLGVTQADVGSALANLKIPGVGSLSQSTICRFESLTLSHNNMIALKPILQAWPEEAE [L68P]  -0.589 ± 0.39
8. RDLEAFAERFKQRRIKLGVTQADVGSALANLKIPGVGSLSQSTICRFESLTLSHNNMIALKPILQAWCEEAE [L68C]  -0.585 ± 0.22
9. RDLEAFAERFKQRRIKLGVTQADVGSALANLKIPGVGSLSQSTICRFESLTLSHNNMIALKPILQAWSEEAE [L68S]  -0.559 ± 0.16
10. RDLEAFAERFKQRRIKLGVTQADVGSALANLKIPGVGSLSQSTICRFESLTLSHNNMIALKPILWAWLEEAE [Q65W]  -0.504 ± 0.18
11. RDLEAFAERFKQRRIKLGVTQADVGSALANLKIPGVGSLSQSTICRFESLTLSHNNMIALKPILQAWAEEAE [L68A]  -0.483 ± 0.12
12. RDLEAFAERFKQRRIKLGVTQADVGSALANLKIPGVGSLSQSTICRFESLTLSHNNMIALKPILQAWMEEAE [L68M]  -0.461 ± 0.26
13. RDLEAFAERFKQRRIKLGVTQADVGSALANLKIPGVGSLSQSTICRFESLTLSHNNMIALKPILQAWLEELE [A71L]  -0.433 ± 0.098
14. RDLEAFAERFKQRRIKLGVTQADVGSALANLKIPGVGSLSQSTICRFESLTLSHNNMIALKPILQAWLEEME [A71M]  -0.4 ± 0.17
15. RDLEAFAERFKQRRIKLGVTQADVGSALANLKIPGVGSLSQSTICRFESLTLSHNNMIALKPILQAWVEEAE [L68V]  -0.384 ± 0.19
16. RDLEAFAERFKQRRIKLGVTQADVGSALANLKIPGVGSLSQSTICRFESLTLSHNNMIALKPILQAWYEEAE [L68Y]  -0.372 ± 0.17
17. RDLEAFAERFKQRRIKLGVTQADVGSALANLKIPGVGSLSQSTICRFESLTLSHNNMIALKPILQAWLYEAE [E69Y]  -0.367 ± 0.13
18. RDLEAFAERFKQRRIKLGVTQADVGSALANLKIPGVGSLSQSTICRFESLTLSHNNMIALKPILQAWLDEAE [E69D]  -0.349 ± 0.19
19. RDLEAFAERFKQRRIKLGVTQADVGSALANLKIPGVGSLSQSTICRFESLTLSHNNMIALKPILVAWLEEAE [Q65V]  -0.324 ± 0.062
20. RDLEAFAERFKQRRIKLGVTQADVGSALANLKIPGVGSLSQSTICRFESLTLSHNNMIALKPILQAWLEEGE [A71G]  -0.284 ± 0.077
21. RDLEAFAERFKQRRIKLGVTQADVGSALANLKIPGVGSLSQSTICRFESLTLSHNNMIALKPILQAWLFEAE [E69F]  -0.251 ± 0.092
22. RDLEAFAERFKQRRIKLGVTQADVGSALANLKIPGVGSLSQSTICRFESLTLSHNNMIALKPILQAWLEEEE [A71E]  -0.247 ± 0.083
23. RDLEAFAERFKQRRIKLGVTQADVGSALANLKIPGVGSLSQSTICRFESLTLSHNNMIALKPILQAWNEEAE [L68N]  -0.232 ± 0.23
24. RDLEAFAERFKQRRIKLGVTQADVGSALANLKIPGVGSLSQSTICRFESLTLSHNNMIALKPILQAWLEEHE [A71H]  -0.223 ± 0.25
25. RDLEAFAERFKQRRIKLGVTQADVGSALANLKIPGVGSLSQSTICRFESLTLSHNNMIALKPILQAWLNEAE [E69N]  -0.219 ± 0.14
26. RDLEAFAERFKQRRIKLGVTQADVGSALANLKIPGVGSLSQSTICRFESLTLSHNNMIALKPILQAWLREAE [E69R]  -0.211 ± 0.07
27. RDLEAFAERFKQRRIKLGVTQADVGSALANLKIPGVGSLSQSTICRFESLTLSHNNMIALKPILTAWLEEAE [Q65T]  -0.19 ± 0.08
28. RDLEAFAERFKQRRIKLGVTQADVGSALANLKIPGVGSLSQSTICRFESLTLSHNNMIALKPILQAWLGEAE [E69G]  -0.18 ± 0.07
29. RDLEAFAERFKQRRIKLGVTQADVGSALANLKIPGVGSLSQSTICRFESLTLSHNNMIALKPILQAWLVEAE [E69V]  -0.178 ± 0.095
30. RDLEAFAERFKQRRIKLGVTQADVGSALANLKIPGVGSLSQSTICRFESLTLSHNNMIALKPILQAWLEEKE [A71K]  -0.125 ± 0.17
31. RDLEAFAERFKQRRIKLGVTQADVGSALANLKIPGVGSLSQSTICRFESLTLSHNNMIALKPILQAWLEEIE [A71I]  -0.11 ± 0.19
32. RDLEAFAERFKQRRIKLGVTQADVGSALANLKIPGVGSLSQSTICRFESLTLSHNNMIALKPILQAWQEEAE [L68Q]  -0.107 ± 0.22
33. RDLEAFAERFKQRRIKLGVTQADVGSALANLKIPGVGSLSQSTICRFESLTLSHNNMIALKPILQAWLLEAE [E69L]  -0.099 ± 0.1
34. RDLEAFAERFKQRRIKLGVTQADVGSALANLKIPGVGSLSQSTICRFESLTLSHNNMIALKPILQAWLSEAE [E69S]  -0.097 ± 0.051
35. RDLEAFAERFKQRRIKLGVTQADVGSALANLKIPGVGSLSQSTICRFESLTLSHNNMIALKPILQAWLCEAE [E69C]  -0.062 ± 0.12
36. RDLEAFAERFKQRRIKLGVTQADVGSALANLKIPGVGSLSQSTICRFESLTLSHNNMIALKPILQAWLEEFE [A71F]  -0.02 ± 0.15
37. RDLEAFAERFKQRRIKLGVTQADVGSALANLKIPGVGSLSQSTICRFESLTLSHNNMIALKPILQAWLQEAE [E69Q]  -0.001 ± 0.17
